According to US20220213181A1 (Novartis, published 2022):
Numbering of substitutions follows the chain as printed.

T1: P31 (human)
T1 construct: linear 15-mer from the N-terminal coiled coil domain of human ANGPTL4
T1 peptide: IQQLFHKVAQQQRHL

T2: P10 (human)
T2 construct: linear 15-mer from the N-terminal coiled coil domain of human ANGPTL4
T2 peptide: QGLREHAERTRSQLS

T3: Human ANGPTL4(26-406)-FLAG-His6-Avi (human, UniProt Q9BY76 24-406, biotin on the C-terminal Avi tag (BirA) where the protein is immobilised)
T3 construct: the text calls it 20 amino acids), then QP, ANGPTL4 26-406 and FLAG-His6-Avi; the signal peptide is left out here; also called full length human ANGPTL4; hANGPTL4
T3 sequence: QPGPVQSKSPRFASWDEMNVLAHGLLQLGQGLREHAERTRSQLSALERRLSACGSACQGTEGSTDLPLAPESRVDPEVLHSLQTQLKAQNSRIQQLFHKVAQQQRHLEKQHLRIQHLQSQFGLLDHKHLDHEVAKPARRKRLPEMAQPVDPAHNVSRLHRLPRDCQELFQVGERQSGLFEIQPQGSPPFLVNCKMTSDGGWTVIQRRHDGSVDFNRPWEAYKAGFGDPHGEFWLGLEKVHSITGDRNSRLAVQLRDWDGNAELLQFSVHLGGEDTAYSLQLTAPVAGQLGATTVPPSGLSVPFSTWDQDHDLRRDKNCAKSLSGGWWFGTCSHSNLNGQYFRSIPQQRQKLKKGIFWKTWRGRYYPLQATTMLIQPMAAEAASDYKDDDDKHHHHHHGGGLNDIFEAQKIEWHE

T4: Cynomolgus monkey ANGPTL4(26-406)-FLAG-His6-Avi (cynomolgus monkey, biotin on the C-terminal Avi tag (BirA) where the protein is immobilised)
T4 construct: also called Cyno ANGPTL4 (26-406)
T4 chain: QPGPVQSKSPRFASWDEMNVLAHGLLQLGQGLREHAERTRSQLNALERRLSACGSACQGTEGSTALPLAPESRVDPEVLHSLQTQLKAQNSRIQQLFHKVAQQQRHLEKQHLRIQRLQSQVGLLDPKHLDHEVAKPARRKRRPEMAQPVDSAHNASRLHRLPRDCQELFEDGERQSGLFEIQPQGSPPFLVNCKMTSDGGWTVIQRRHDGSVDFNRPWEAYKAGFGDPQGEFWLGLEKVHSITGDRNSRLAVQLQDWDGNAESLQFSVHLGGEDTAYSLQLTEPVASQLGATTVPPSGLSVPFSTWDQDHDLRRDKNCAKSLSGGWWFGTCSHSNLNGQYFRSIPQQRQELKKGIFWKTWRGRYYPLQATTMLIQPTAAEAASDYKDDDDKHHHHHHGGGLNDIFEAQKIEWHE

B1: NEG276 (antibody, human IgG1, kappa)
heavy: not shown
light: EIVMTQSPATLSVSPGERATLSCKASQDIGSNLNWLQQKPGQAPRRLIYAVSNRGPGIPARFSGSRSGSEYTLTISSLQSEDFAVYYCLQYASSPWTFGQGTKVEIKRTVAAPSVFIFPPSDEQLKSGTASVVCLLNNFYPREAKVQWKVDNALQSGNSQESVTEQDSKDSTYSLSSTLTLSKADYEKHKVYACEVTHQGLSSPVTKSFNRGEC
notes: humanized, hIgG1/kappa, parental antibody 19C16
B2: NEG318 (antibody, human IgG1, kappa, V domains shown)
VH: QVQLVQSGAEVKKPGASVKVSCKASGYTFTSFWITWVRQAPGQGLEWMGDIYPGGATTNYNEKLQGRVTLTVDTSTSTAYMELRSLRSDDTAVYYCARSPPQVGPFDYWGQGTLVTVSS
VL: DIQMTQSPSSLSASVGDRVTITCQASDYIYHWLAWYQQKPGKAPKLLISGASSLETGVPSRFSGSGSGKDYTFTISSLQPEDIATYYCQQYWSIPWTFGQGTKLEIKR
notes: humanized, hIgG1/kappa, parental antibody 14P18
B3: NEG278 (antibody, human IgG1, kappa, V domains shown)
VH: QVQLVQSGAEVKKPGASVKVSCKASAYTFTSSWMQWVRQAPGQGLEWMGEIDPSDNYANYNQKFQGRVTLTVDTSTSTAYMELSSLRSEDTAVYYCASGSYFSNFFDYWGQGTLVTVSS
VL: EIVMTQSPATLSVSPGERATLSCKASQDIGSNLNWLQQKPGQAPRRLIYAASVREPGIPARFSGSRSGSEYTLTISSLQSEDFAVYYCLQYASSPWTFGQGTKVEIKR
notes: as for B1
B4: NEG310 (antibody, human IgG1, kappa, V domains shown)
VH: QVQLVQSGAEVKKPGASVKVSCKASGYTFTSYTMHWVRQAPGQGLEWMGYINPSSGYTKYNQKFQGRVTMTADKSTSTAYMELSSLRSEDTAVYYCAEGWLLLAMDYWGQGTLVTVSS
VL: EAVVTQSPATLSLSPGERATLSCRSSTGAVTTSNYAIWVQEKPGQAPRGLIGGTNNRAPGIPARFSGSLSGDDATLTISSLQPEDFAVYFCALWYSDHWVFGQGTKVEIKR
notes: humanized, hIgG1/kappa, parental antibody 17B1
B5: NEG315 (antibody, human IgG1, kappa, V domains shown)
VH: B2 VH with S31N, F32Y, I51F, A56G, T57N, E62A, G104A
VL: B2 VL with D27E, H31N, A34G, S53G, I94T
notes: humanized, hIgG1/kappa, parental antibody 37P1
B6: NEG313 (antibody, human IgG1, kappa, V domains shown)
VH: B2 VH with T30N, S31N, F32Y, I51F, A56G, T57S, E62A, G104A
VL: B2 VL with A34G, S53G, I94T
notes: as for B5
B7: NEG319 (antibody, human IgG1, kappa, V domains shown)
VH: B2 VH with T57N
VL: B2 VL with D27E, Y30I, H31N, S52T, S53G
notes: as for B2
B8: NEG276-LALA (antibody, human IgG1, kappa, L234A L235A)
heavy: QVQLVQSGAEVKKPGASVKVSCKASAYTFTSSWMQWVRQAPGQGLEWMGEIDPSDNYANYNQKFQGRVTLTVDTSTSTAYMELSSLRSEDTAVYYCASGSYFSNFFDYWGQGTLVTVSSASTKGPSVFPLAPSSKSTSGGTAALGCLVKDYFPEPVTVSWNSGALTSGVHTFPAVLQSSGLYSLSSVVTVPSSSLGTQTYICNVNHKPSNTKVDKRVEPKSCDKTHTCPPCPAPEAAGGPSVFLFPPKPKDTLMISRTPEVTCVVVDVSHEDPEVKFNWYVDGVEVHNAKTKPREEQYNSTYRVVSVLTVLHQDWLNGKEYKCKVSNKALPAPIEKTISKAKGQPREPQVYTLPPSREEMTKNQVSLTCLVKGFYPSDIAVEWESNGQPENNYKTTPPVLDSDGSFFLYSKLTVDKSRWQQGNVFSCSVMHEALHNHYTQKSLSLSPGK
light: B1 light

Target: T1, P31
Assay: linear peptide array on glass (JPT)
Procedure: (§1) The ability of selected antibodies of invention, namely NEG276 and NEG318, to bind to linear 15-amino-acid peptides derived from the N-terminal coiled coil domain of human ANGPTL4 was tested. The peptides were immobilized on a glass surface, and the ability of NEG276 and NEG318 to bind to the immobilized peptides was evaluated using experimental methods optimized for linear peptide epitope mapping at JPT Peptide Technologies (Berlin, Germany).
B1: no binding.
B2: no binding.

Target: T2, P10
Assay: linear peptide array on glass (JPT)
Procedure: as §1
B1: no binding.
B2: no binding.

Each binder was assayed against T3, Human ANGPTL4(26-406)-FLAG-His6-Avi (assay: Octet (ForteBio) kinetics, biotinylated antigen on streptavidin sensor, IgG in solution).
Procedure: Dissociation constants (KD) were determined for selected antibodies of the invention by using an Octet (ForteBio) kinetic binding assay. ForteBio 10× Kinetics Buffer (ForteBio, catalog number 18-5032) was diluted 10-fold with DPBS (Life Technologies, catalog number 14190-136), and the resulting solution was added (0.2 ml per well) to a 96-well plate (Greiner, catalog number 65520). Streptavidin sensors (ForteBio, catalog number 18-5020) were immersed in the solution and equilibrated for at least 10 min at room temperature. In a second 96-well plate (Greiner, catalog number 65520), sensors were washed in 1× Kinetics buffer, and then immersed in 200 ul of 25 nM biotinylated human ANGPTL4 or a biotinylated reference protein (for background subtraction) for 1000 sec at […] room temperature. […] The sensors were then transferred to a well containing 200 μl 1× Kinetics buffer, and antibody dissociation was monitored for 1200 seconds. Background-corrected association and dissociation curves were globally fitted by Octet Software (ForteBio) to generate association (kₐ) and dissociation (kd) rate constants, which in turn were used to calculate equilibrium dissociation constants (KD).
Work on B1 yielded a Kd of 0.023 nM, a koff of 8e-06 s⁻¹ and a kon of 340000 M⁻¹ s⁻¹.
B3 gave a kon of 300000 M⁻¹ s⁻¹.
In the case of B4, the Kd is reported as 0.025 nM, the koff is reported as 1.1e-05 s⁻¹ and the kon is reported as 220000 M⁻¹ s⁻¹.
With B5 the Kd was 0.029 nM, the koff was 7.9e-06 s⁻¹ and the kon was 280000 M⁻¹ s⁻¹.
In the case of B6, the Kd is reported as 0.04 nM, the koff is reported as 1.1e-05 s⁻¹ and the kon is reported as 280000 M⁻¹ s⁻¹.
For B2, the Kd was 0.045 nM, the koff was 1.2e-05 s⁻¹ and the kon was 270000 M⁻¹ s⁻¹.
B7 showed a Kd of 0.036 nM, a koff of 1e-05 s⁻¹ and a kon of 280000 M⁻¹ s⁻¹.

Each binder was assayed against T3, Human ANGPTL4(26-406)-FLAG-His6-Avi (assay: SET (solution equilibrium titration), MSD detection, IgG).
Procedure: (§2) SET assays were performed as follows. In a 96-well polypropylene plate, a constant concentration of ANGPTL4 antibody (10 pM) was mixed with different concentrations of non-biotinylated human, cyno, mouse, or rat full-length ANPGLT4 protein, or human ANGPTL4 N-terminal domain protein (5-fold serial dilution ranging from 0.01 pM to 100 nM) in SET buffer (PBS, pH 7.4 without CaCl₂) or MgCl₂, 0.5% w/v bovine serum albumin (fatty acid free) and 0.02% v/v Tween-20). The final reaction volume was 80 μL. The plate was sealed using an adhesive film and incubated at 22° C. for 14 hours with constant shaking (300 rpm). During the same period of time, a 384-well streptavidin-coated Meso Scale Discovery (MSD) plate was blocked by incubating the plate with 50 μL blocking buffer (PBS, pH 7.4, 5% w/v bovine serum albumin) per well at 4° C. The blocked MSD plate was washed 3 times with wash buffer (PBS, pH 7.4 and 0.05% v/v Tween-20) using a plate washer (BioTek). Biotinylated ANGPTL4 (full-length human, cyno, mouse, or rat ANGPTL4, or human ANGPTL4 N-terminal domain) protein (1 nM, 15 μL per well) was immobilized on the surface of the streptavidin-coated MSD plate by incubation at 22° C. for one hour with constant shaking (600 rpm). The plate was then washed 3 times as described earlier.
(§3) The equilibrium binding reactions (15 μL per well) were applied to the MSD plate with immobilized ANGPTL4 and incubated for 20 min at 22° C. The unbound material was removed by washing the plate 3 times with wash buffer, and the captured antibody was detected by adding 15 μL per well of a 1:500 dilution of Sulfo-tagged goat anti-human IgG (Meso Scale Discovery). The plate was then incubated for one hour with constant shaking (600 rpm). The plate was washed 3 times, and then 15 μL/well of 1× MSD read buffer T was added and the plate was developed using a Sector Imager 6000 (Meso Scale Discovery). The data were transferred to Microsoft Excel for analysis and plotted using GraphPad Prism v6. The KD values were determined by fitting the data to the following equation: […]
(§4) where Bₘₐₓ is the signal when no ANGPTL4 protein is present in solution, CAb is the constant concentration of ANGPTL4 antibody in solution, CAg is the concentration of ANGPTL4 in solution, and KD is the equilibrium dissociation constant.
With B1 the Kd was 0.024 nM.
B8 gave a Kd of 0.008 nM.
Binder B3 has a Kd of 0.015 nM.
Work on B4 yielded a Kd of 0.021 nM.
B5 was tested, and the Kd was 0.012 nM.
B6 was tested, and the Kd was 0.009 nM.
With B2 the Kd was 0.009 nM.
B7 showed a Kd of 0.016 nM.

Target: T4, Cynomolgus monkey …
Assay: as above
Procedure: as §2, §3, §4
B1 was tested, and the Kd was 0.014 nM.
For B8, the Kd was 0.007 nM.
Work on B3 yielded a Kd of 0.02 nM.
For B4, the Kd was 0.022 nM.
Work on B5 yielded a Kd of 0.021 nM.
Work on B6 yielded a Kd of 0.015 nM.
B2 gave a Kd of 0.017 nM.
B7 showed a Kd of 0.008 nM.
